According to patent publication US20240010720A1 (IOMX THERAPEUTICS, published 2024):
Where two headings read alike, the source gives them in different places.

B4: human IGSF11 (VSIG3) on cells (receptor)
chain: LEVSESPGSIQVARGQPAVLPCTFTTSAALINLNVIWMVTPLSNANQPEQVILYQGGQMFDGAPRFHGRVGFTGTMPATNVSIFINNTQLSDTGTYQCLVNNLPDIGGRNIGVTGLTVLVPPSAPHCQIQGSQDIGSDVILLCSSEEGIPRPTYLWEKLDNTLKLPPTATQDQVQGTVTIRNISALSSGLYQCVASNAIGTSTCLLDLQVISPQPRNIGLIAGAIGTGAVIIIFCIALILGAFFYWRSKNKEEEEEEIPNEIREDDLPPKCSSAKAFHTEISSSDNNTLTSSNAYNSRYWSNNPKVHRNTESVSHFSDLGQSFSFHSGNANIPSIYANGTHLVPGQHKTLVVTANRGSSPQVMSRSNGSVSRKPRPPHTHSYTISHATLERIGAVPVMVPAQSRAGSLV

What was measured:
[1] = biological target: T1, His-tagged extracellular domain (ECD) of human IGSF11 (VSIG3) (human, UniProt Q5DX21 23-241); test: ELISA: IgG1-format antibody titrated on coated His-tagged IGSF11; x axis nM IgG, y axis absorbance per legend
T1 construct: partly bought (SinoBiological 13094-H08H); also called IGSF11-HIS; HIS-IGSF11; not shown: HIS6 tag
T1 sequence: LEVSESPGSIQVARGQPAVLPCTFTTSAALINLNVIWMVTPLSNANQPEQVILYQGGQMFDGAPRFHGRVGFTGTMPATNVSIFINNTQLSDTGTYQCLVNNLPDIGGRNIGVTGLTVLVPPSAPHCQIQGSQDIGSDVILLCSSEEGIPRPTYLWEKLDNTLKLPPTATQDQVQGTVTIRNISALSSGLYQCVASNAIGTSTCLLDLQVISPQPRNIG

[2] = biological target: T2, recombinant human IGSF11 (VSIG3) extracellular domain (ECD) (human, UniProt Q5DX21 23-241, biotinylated where captured on streptavidin); test: SPR, IgG1
T2 construct: also called biotinylated recombinant ECD-IGSF11; IGSF11 (ECD domain)
T2 sequence: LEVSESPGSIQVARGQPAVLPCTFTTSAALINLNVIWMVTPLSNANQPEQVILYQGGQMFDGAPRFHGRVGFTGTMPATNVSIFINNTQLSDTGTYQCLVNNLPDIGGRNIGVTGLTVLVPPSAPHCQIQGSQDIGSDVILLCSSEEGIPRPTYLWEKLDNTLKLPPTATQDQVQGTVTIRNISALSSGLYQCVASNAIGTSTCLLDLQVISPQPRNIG

[3] = biological target: B4; test: FACS, HEK cells expressing IGSF11
[4] = biological target: B4; test: FACS, IgG1-format antibodies; DMS 273 cells (D) treated with scrambled control siRNA (SC)
[5] = biological target: B4; test: FACS, IgG1-format antibodies; CL-11 cells (C), a line that does not express IGSF11 (specificity control), scrambled control siRNA (SC)
[6] = biological target: B4; test: FACS, DMS 273 cells
[7] = biological target: T1, His-tagged extracellular domain (ECD) …; test: blocking ELISA: antibody pre-incubated with His-tagged IGSF11 ECD, complexes added to immobilised VSIR-Fc; y axis % remaining IGSF11 binding to VSIR, x axis nM IgG per legend
[8] = biological target: B4; test: FACS, IgG1-format antibodies; M579-A2-luc cells (M) treated with IGSF11 siRNA (KD)
[9] = biological target: B4; test: FACS, IgG1-format antibodies; DMS 273 cells (D) treated with IGSF11 siRNA (KD)
[10] = biological target: B4; test: FACS, IgG1-format antibodies; CL-11 cells (C), a line that does not express IGSF11 (specificity control), IGSF11 siRNA (KD)
[11] = biological target: B4; test: FACS, IgG1-format antibodies; M579-A2-luc cells (M) treated with scrambled control siRNA (SC)
[12] = biological target: T1, His-tagged extracellular domain (ECD) …; test: blocking ELISA: antibody pre-incubated with His-tagged IGSF11 ECD, complexes added to immobilised VSIR-Fc; y axis % remaining IGSF11 binding to VSIR, x axis nM IgG per legend; remark: listed apart in the source
[13] = biological target: T3, scFv-Fc-format of antibody A-015; test: FACS on monocytes (CD14 gate) from PBMC of healthy volunteer A, labelled secondary antibody; x axis IGSF11 signal
T3 construct: scFv genetically fused to mouse IgG2A Fc; also called anti-IGSF11 scFv-Fc (mouse IgG2A)

[14] = biological target: T1, His-tagged extracellular domain (ECD) …; test: ELISA, IgG1
[15] = biological target: T2, recombinant human IGSF11 (VSIG3) …; test: BLI, apparent affinity, IgG captured, IGSF11 ECD 100 nM
Text: Briefly, various APBs were loaded on an optical biosensor via a commercially available Capture System (AHC sensors, ForteBio).

[16] = biological target: B4; test: FACS, MDA-MB-231-IGSF11 cells, IgG
Text: (§1) Unbound antibodies were removed by washing the cells three time with FACS buffer. Bound antibodies were detected with a mouse anti-human IgG antibody conjugated with AlexaFluor647.

[17] = biological target: T4, IGSF11 ECD fused to murine-Fc (human; mouse, UniProt Q5DX21 23-241); test: ELISA, IgG
T4 construct: also called Fc-fusion IGSF11 ECD; full-length ECD of IGSF11; not shown: murine Fc
T4 sequence: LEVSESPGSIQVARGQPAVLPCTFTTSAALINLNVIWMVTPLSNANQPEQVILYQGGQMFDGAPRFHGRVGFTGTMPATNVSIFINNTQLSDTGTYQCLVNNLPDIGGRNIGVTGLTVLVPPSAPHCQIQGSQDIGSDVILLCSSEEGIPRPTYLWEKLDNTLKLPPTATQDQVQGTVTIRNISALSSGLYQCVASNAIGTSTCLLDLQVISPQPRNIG

[18] = biological target: T5, IgC2 domain of human IGSF11 fused to murine IgG2a Fc-region (human; mouse, UniProt Q5DX21 137-241); test: ELISA, IgG
T5 construct: also called IgC2-like domain mFc fusion; not shown: murine IgG2a Fc-region
T5 sequence: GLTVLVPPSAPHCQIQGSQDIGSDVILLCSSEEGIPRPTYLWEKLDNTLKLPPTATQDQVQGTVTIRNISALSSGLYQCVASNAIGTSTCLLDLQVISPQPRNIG

murine IGSF11 on cells [19] = biological target: T6, murine IGSF11 on cells (mouse, UniProt P0C673 23-428); test: FACS, CT26-IGSF11 cells, IgG
T6 construct: UniProt P0C673; also called MC38-IGSF11 (murine); CT26-IGSF11 (murine)
T6 sequence: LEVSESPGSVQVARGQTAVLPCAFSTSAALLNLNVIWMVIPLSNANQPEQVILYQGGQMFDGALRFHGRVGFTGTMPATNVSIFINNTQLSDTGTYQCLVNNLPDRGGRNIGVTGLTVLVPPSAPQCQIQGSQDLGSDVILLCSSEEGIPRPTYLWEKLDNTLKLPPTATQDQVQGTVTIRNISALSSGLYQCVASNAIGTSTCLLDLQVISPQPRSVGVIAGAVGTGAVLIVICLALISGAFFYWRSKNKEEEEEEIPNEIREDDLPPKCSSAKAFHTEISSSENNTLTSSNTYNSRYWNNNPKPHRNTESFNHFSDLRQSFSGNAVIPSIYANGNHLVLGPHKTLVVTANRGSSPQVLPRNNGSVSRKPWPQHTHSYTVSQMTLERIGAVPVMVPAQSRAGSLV
Text: as §1

murine IGSF11 on cells [20] = biological target: T6, murine IGSF11 on cells; test: FACS, MC38-IGSF11 cells, IgG
Text: as §1

T3 sequence (VL, as listed by the source): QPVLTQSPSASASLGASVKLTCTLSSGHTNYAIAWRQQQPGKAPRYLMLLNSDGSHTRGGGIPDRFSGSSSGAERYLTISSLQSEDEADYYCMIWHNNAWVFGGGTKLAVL

B1: B-002 (chain-swapped IgG1) (antibody, V domains shown)
VH: EVQLVESGGGLIQPGGSLRLSCAASGFTVSSNYMSWVRQAPGKGLEWVSVIYSGGSTYYADSVKGRFTISRDNSKNTLYLQMNSLRAEDTAVYYCARGNPYYYGDLQVNFDYWGQGTLVTVSS
VL: QAVVTQEPSLTVSPGGTVTLTCASSTGAVTSGYYPNWFQQKPGQAPRALIYSTSNKHSWTPARFSGSLLGGKAALTLSGVQPEDEAEYYCLLYYGGAWVFGGGTKLTVL
notes: human IgG1 format; also called B2
Question: With B1 as the binder, how does the “EC50 (read off the curve)” value [1] read?
Answer: ~0.01 nM

Question: What about the Kd [2] of the same binder?
Answer: 100 to 250 nM

Question: What about the EC50 [3] of the same binder?
Answer: 10 to 50 nM

Question: And the “percentage binding (FACS heat-map)” value [4]?
Answer: 80.1%

Question: And the “percentage binding (FACS heat-map)” value [5]?
Answer: 3%

Question: What about the EC50 [6] of the same binder?
Answer: > 50 nM

Question: And the “IC50 (read off the curve)” value [7]?
Answer: ~4 nM

Question: And the “percentage binding (FACS heat-map)” value [8]?
Answer: 2.77%

Question: What about the “percentage binding (FACS heat-map)” value [9] of the same binder?
Answer: 8.68%

Question: And the “percentage binding (FACS heat-map)” value [10]?
Answer: 4.54%

Question: What about the “percentage binding (FACS heat-map)” value [11] of the same binder?
Answer: 70.7%

B2: B-001 (chain-swapped IgG1) (antibody, V domains shown)
VH: EVQLLESGGGLIQPGGSLRLSCAVSGFTVSSNYMSWVRQAPGKGLEWVSVIYSGGSTYYADSVKGRFTISRDNSKNTLYLQMNSLRAEDTAVYYCARGNPYYYGDLQVNFDYWGQGTLVTVSS
VL: QAVVTQEPSLTVSPGGTVTLTCASSTGAVTSAYYPNWFQQKPGQAPRALIYSTSNKHSWTPARFSGSLLGGKAALTLSGVQPEDEADYYCLLYYGGAWVFGGGTKLTVL
notes: human IgG1 format; also called B1
Question: What does the source list for B2?
Answer: Kd [2]: 250 to 500 nM; EC50 [3]: 10 to 50 nM; IC50 (read off the curve) [12]: ~2 nM

B3: B-004 (chain-swapped IgG1) (antibody, V domains shown)
VH: EVQLLESGGGLIQPGGSLRLSCAVSGFTVSSNYMSWVRQAPGKGLEWVSVIYSGGSTYYADSVKGRFTISRDNSKNTLYLQMNSLRAEDTAVYYCARGNPYYYGDLQVNFDYWGQGTLVTVSS
VL: QAVVTQEPSLTVSPGGTVTLTCASSTGAVTSGYYPNWFQQKPGQAPRPLIYSTSNKHSWTPARFSGSLLGGKAALTLSGVQPDDEAEYYCLLYYGGDWVFGGGTKLTVL
notes: human IgG1 format; also called B4
Question: What does the source list for B3?
Answer: EC50 (read off the curve) [1]: ~0.02 nM; IC50 (read off the curve) [7]: ~5 nM

Question: Does B4 bind [13]?
Answer: binds

B5: A-037 (IgG1 format) (antibody, V domains shown)
VH: QVQLVQSGAEVKKPGASVKVSCKASGYTFTGYYMHWVRQAPGQGLEWMGWINPNSGNTGYAQKFQGRVTMTRNTSISTAYMELSSLRSEDTAVYYCARGGQQQLVLDDYWGQGTLVTVSS
VL: NFMLTQPHSVSESPGKTVTISCTGSSGSIASNYVQWYQQRPGSAPTTVIYEDNQRPSGVPDRFSGSIDSSSNSASLTISGLKTEDEADYYCQSYDSSNQRVFGGGTKLTVL
notes: human IgG1 format
Question: Does B5 bind [14]?
Answer: binds

B6: A-019 (IgG1 format) (antibody, V domains shown)
VH: QVQLVQSGAEVKKPGASVKVSCKASGYTFTGYYMHWVRQAPGQGLEWMGWINPNSGNTGYAQKFQGRVTMTRNTSISTAYMELSSLRSEDTAVYYCARGGQQQLVLDDYWGQGTLVTVSS
VL: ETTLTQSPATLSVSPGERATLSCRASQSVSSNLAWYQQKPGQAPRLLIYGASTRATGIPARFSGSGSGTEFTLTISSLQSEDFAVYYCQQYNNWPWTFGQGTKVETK
notes: human IgG1 format
Question: Does B6 bind [14]?
Answer: binds

B7: C-003 (IgG1 format) (antibody, V domains shown)
VH: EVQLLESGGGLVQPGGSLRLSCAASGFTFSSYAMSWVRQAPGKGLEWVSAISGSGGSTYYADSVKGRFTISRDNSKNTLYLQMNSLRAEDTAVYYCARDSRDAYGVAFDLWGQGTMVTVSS
VL: ASVLTQPPSVSAAPGQKVTISCSGSSSNIGNNYVSWYQQLPGTAPKLLIYDNNKRPSGIPDRFSGSKSGTSATLGITGLQAEDEADYYCLSYTSSQYVFGGGTKLTVL
notes: wildtype human IgG1 and kappa or lambda constant regions
Question: How did the Kd [15] turn out when B7 was run?
Answer: < 15 nM

Question: And the EC50 [16]?
Answer: 10 to 15 nM

Question: And the EC50 [17]?
Answer: < 1 nM

Question: And the EC50 [18]?
Answer: < 1 nM

Question: What about the EC50 (murine IGSF11 on cells [19]) of the same binder?
Answer: < 20 nM

Question: What about the EC50 (murine IGSF11 on cells [20]) of the same binder?
Answer: < 20 nM
